Reference: the DeepSol protein solubility set

Assay: soluble on expression in E. coli; label from the status in PepcDB or PDB records

Soluble on expression in E. coli, not soluble:
MGSDKIHHHHHHMKVALLSPIAWRTPPRHYGPWERVVSLIAEGLVKKGVDVTLFATGDSKTAGRLEYICPIPYEENPNMDAKVWEAMHIAHLFEQAHKFDIIHNNYDFLPLSYSRQVDTPMITTIHGFSSPKILPIYREYNRNNYYVSISNADRSPDLDYYATVYHGIDLNELTLKLNAGSYLLYFGRIHPDKGTAQAIEIARKSDMQLLIAGIIQDKQYFNQQIYPRIDNKKVIYLGSVGPAKRDELLGNALALLHPIHFNEPFGLSVIEAMACGTPVIAFNKGSMPEVIKDGETGFLVDNVEMACEKLGSINKIKRANCRYWVEENFSQERMVSDYLSLYQEIIKGGKLPVRTPSLSGRCK
MGSDKIHHHHHHMKVEVNSQALADAVAWTTRVIDARPATPILAGIRLEAIDGTLQLSAFNYAISARHHIEAGVDEAGSVLVLGKLLADITKSLPAAKTYLSTDGSTMTITSGKSTFTMQLMPESEYPDLPVVPTKLGQVDSPTFAQAVNQASVAVSREENRPVLTGIRVQFQGDKVIMSSTDRFRLARSSFTWTPEDATISTTALVRGSLLRDMARSLDEHQNVTIDFDADNPSLLGFENAGRVSTSQLIDGEFPAVDRLYADEYPIHAVINKQALIDAIKRVSLVAERNAPIRMVFSGQELTLSAGTADEAQAKEILDIDMDGEDITVAFNPSYLVDGLSAISEPFVRMKMTTAVKPVEFNGQQEADSDESMDYRYLLVPMRFNN
MGSDKIHHHHHHMKVKAPGRINIIGEHTDYNDGYVLPFAVNRYVFLSIEGSERFIFHSENVNETVEMEKIEKLNKWTDYISGVIASFEKRGYRVSPVKISVSSNLPIGAGLSSSAALEVATAYAISEYFGFNVPKLELVKIAREAEVEFVGVRCGIMDQFTAVFGKKDHAIFLDTMTLEYEYVPLKLEGYEINLVDSNVKHELSSSEYNRRRQECEEVLKTLEKKSFREVTKEDLERLSGTLRKRAQHVLEENERVLKSVQALKEGDFETLGKLLFSSHESLRDLYEVSCEETDFIVDYLRGKEGILGARMVGGGFGGGVIVLSKKGAFGKIKEELVESYRKRFGIDLIFHEIESSDGVQKI
MGSDKIHHHHHHMKVLLTRPEGRNQSMVDALNERGIEHCVTPLLCVEATPALPPETSHPLANVDMVVCISANAVSFADDTFKANDANVKGWPKVPYFAVGHATWEALQQIDIDALEAPDDCQQTEGLLTLPTLQHIQGKKITIIRGVGGREALAEQLTSRGAQVRYWEVYQRACPPLDGTIITQQWIDLGIDTVVVTSGEVLDNLINLVPKELFAWLRSCHIIVPSNRVEAQAHAFGITQVTNANAANSKAVLNALKL
MGSDKIHHHHHHMKVLVFDVSAPYALFRRPYTTTSSYTLPFPPRTTLLGLVGCVLGYSTPERLDSAKVAVQIKNPLKFLRTGTNFVETKKDKKASKRTRISLQLLKNPAYRVFFSWEDEDFERLKNLLEHSETIFTPYLGVASFIARLNYVGKYEATRVADFPCEVHTVVPNTVKLLPEPSHYLIFERVTRKMDKERNMLESAVYIFKRDLSPVKVEGGEVWRVGEQNIVWM
MGSDKIHHHHHHMKWNSNLYDHKHSFVAEYGKSMINFVNVGKDQKILDLGCGTGVLTNELAKNGATVIGTDLSKNMIDKAKTNYPNLIFQVKDATNLSFKNEFDTVFSNAVFHWISNQEKLLHSIYTCLKDNGTLICEFGAQNNISQIQTAFEKVIEQKGYSYCSPFFFPSKEEYKLLLDQAGFEVKHIIEYDRPTPLADGEKGLRNWICQFFASDLLEFSDEQKEQILFETEKLCKNSIWKNNQWVADYRRIQIIAVKNKNNGTK
MGSDKIHHHHHHMLAFAARTVVKPLGLLKPSSLMKVSGRFKAHQDALPRLPVPPLQQSLDYYLKALQPIVSEEEWAHTKQLVDEFQTSGGVGERLQKGLERRAKKMENWLSEWWLKTAYLQFRQPVVIYSSPGVILPKQDFVDLQGQLRFAAKLIEGVLDFKSMIDNETLPVEFLGGQPLCMNQYYQILSSCRVPGPKQDSVVNFLKSKRPPTHITVVHNYQFFELDVYHSDGTPLTSDQIFVQLEKIWNSSLQSNKEPVGILTSNHRNTWAKAYNNLIKDKVNRESVNSIQKSIFTVCLDKQVPRVSDDVYRNHVAGQMLHGGGSKFNSGNRWFDKTLQFIVAEDGSCGMVYEHAAAEGPPIVALVDHVMEYTKKPELVRSPMVPLPMPKKLRFNITPEIKNDIEKAKQNLSIMIQDLDIMMLTFHHFGKDFPKSEKLSPDAFIQVALQLAYYRIYGQACATYESASLRMFHLGRTDTIRSASIDSLAFVKGMGDSTVPEQQKVELLRKAVQAHRAYTDRAIRGEAFDRHLLGLKLQAIEDLVSMPDIFMDTSYAIAMHFNLSTSQVPAKTDCVMFFGPVVPDGYGICYNPMEAHINFSVSAYNSCAETNAARMAHYLEKALLDMRTLLQNHPRAKL
MGSDKIHHHHHHMLAGGKMGDMKITRHIHACVEISQGNDRIIIDPGTFGAPDLCGATILVTHNHADHVDPELLKPGMTIYAPRSVAHSIPVECHIVEHGRNFTVGSLSVEVLGSEHAMLTHSMPIAENVGYLINGRVLHPGDTFQPIKDVELALVPVNGPWVKMLDVEGYLKKFPPKRFIGIHDGIVNDRGLAINKKFLTHLGETYGSEYSPLEEGESLEI
MGSDKIHHHHHHMLAQGQRFEGLLCGDDSSRCEVVEMAKLTQFLISGACALLITATSAIADPIAPAGKAIGQDGGGHTIYQVDANGISIGYKLIGQGAPMVMIMGLGGTADNWPPQVIEALSKNHQLILMDNRGMGHTTANDTPFSYPLFAADVIGLLDALGIKRSDVLGYSMGSTITQQLLLQYPDRFNKALIHATSTDGSNVAKALHGRVPTDPIVARQVEATTHWKTPLDKLPSIDNQVMLVVGTADNVVGTESSKTIASAIPGAWLVQFKGATHHLMYETPEGFSAAALTFFETNETVTPKIEPNASVAPPPTQP
MGSDKIHHHHHHMLDSLFPIKRNYLDRNGHKLQYVNEGQGEPVVMVHGNPSWSFYYRNLVTALSPNHQCIVPDHIGCGLSDKPDDAGYDYTLKNRIDDLEALLDHLEVKEKITLIVHDWGGMIGMGYAARHPERIKKIVVLNTGAFHLPEAKPFPWALWICRNTLLGTVLVRGFNAFSSIASYVGVKRAPMPKAIREAYVAPFNSWANRISTLRFVQDIPLKPGDRNYELVSEISEKLNQFNQLPMMICWGLKDFVFDKHFLDEWKRRFPEAEVHEFADCGHYILEDASDEVVAQVQQFMAR
MGSDKIHHHHHHMLEFPALRPFLWSGRYNRPLMPLTYLTRIAQTPAPTFQEEARAELIARLWSDLGYVTERDEVGNVLTRITPPGTEGRPALLLAAHLDTVFGGQTDVTVHDEGQRLRGPGVGDNSASLAVVTAMLRDFRTAPPLLRRPLWVAANVGEEGLGDLRGAKHLLAAHRPQLGAFVAVDGYLGVAVTQAVGVRRYRAQFVGPGGHSWGDQAPSALHALGLAISGLYALHLPAQPRTTLNVGTAAGGNSVNSIAGQAELLLDLRSLGADELAALDSRAQDVLHRAARDAGVSLRLERVGDRPGGDLHTGALLGMAHAAAREVRVDLRLAASSTDANAAAPHVLPALAFGVYRGGNAHREDEWVEKRSLAPGLTALKRLVALYQAAPLA
MGSDKIHHHHHHMLENRVKTKQIFIGGVAIGGDAPISTQSMTFSKTADIESTKNQIDRLKLAGADLVRVAVSNEKDALALKELKKVSPLPLIADIHFHYKFALIAAQSVDAIRINPGNIGSKEKIKAVVDACKEKNIPIRIGVNAGSLEKQFDQKYGPTPKGMVESALYNAKLLEDLDFTNFKISLKASDVIRTIEAYRMLRPLVIYPFHLGVTEAGNLFSSSIKSAMALGGLLMEGIGDTMRVSITGELENEIKVARAILRHSGRLKEGINWISCPTCGRIEANLVDMAIKVEKRLSHIKTPLDISVMGCVVNALGEAKHADMAIAFGNRSGLIIKEGKVIHKLAEKDLFETFVIEVENLAKEREKSLKD
MGSDKIHHHHHHMLFSAPPVLAPVVPGKALEFPQDFGAHNDFRIEWWYVTGWLETPTGKPLGFQITFFRTATEIDRDNPSHFAPDQLIIAHVALSDPAIGKLQHDQKIARAGFDLAYARTGNTDVKLDDWIFVRETDGRYRTRIEAEDFTLTFILTPSQPLMLQGENGFSRKGPGAPQASYYYSEPHLQVSGIINRQGEDIPVTGTAWLDREWSSEYLDPNAAGWDWISANLDDGSALMAFQIRGKDDSKIWAYAALRDASGHTRLFTPDQVSFHPIRTWRSARTQAVYPVATRVLTGETEWQITPLMDDQELDSRASAGAVYWEGAVTFTRDGQPAGRGYMELTGYVRPLSM
MGSDKIHHHHHHMLGDLLTTFFEVARQGSITTAARQLGVSQPTVTARIRQLEDVYGVELFYRRASRVDLSDVGVALMPVVEQLMQQESNADYLLRNAGNLRFGNLRIGATGPYYILRSVAAFRQRYPAVEVSIEIGNSQQMIEALLEYRIDAAVSSHAVDDSRLARIRLASDPMVLVVHPEHPFARMPHIDIARLAECHLLVREHGSMTRQATEAALAACGQELPRHMVIGSREAIYEAIRQNIGASVVPAGEVPRDPSLRIVPFAQRPPVIHEYLYCLESRRHTRLVGALLECVESLAPHQQAQAA
MGSDKIHHHHHHMLGLPGEMQYVPGIHSPNEGPRPMTIQRKQTREVRIGKVRIGGANPVVVQSMTNTDTRDVEQTVEQIRQLQEAGCEIVRLAVLNEDAAWAIKPIRSQVSVPLVADIHFDHRLAVSALEAGVDALRINPGNIGTRAAVDRVVDAAKAHNAVIRIGVNSGSLETDLIDQYGGPTPEAMVESAFRHIRMLEDRNFGDIKVSLKSSSVSRCIEAYTLLSAKCDYPLHIGVTEAGTVLRGSIKSAVGLGVLLWQGIGDTLRVSLTSDPVAEMAVAWEILRSLGLRSRGPEIIACPTCGRCEIGLIALAEEVERRLEGETESFKVAVMGCVVNGPGEAREADLGIAGGRDKGIIFRKGEIVRTVKGGSNLLAAFMEELDTFLAHRRAERKDD
MGSDKIHHHHHHMLIDEEITLKKLETFLAFMRTGNLARAAAELGTSNVSVHRAIHSLESALRCPLFKHEGRNLTPLESAYVLEERAQKLVQEVLDTVRLTREAAGFSAERFKLGALYSLTVKTVPQLIMGLKLRRSALNIDLILGSNVDLFYQLKNMELDAILVSLNDSVSDPDCEHLPLFSDDIFLAVPVDSPYARLAEIDLSTLRDTPFVTLTQGFATHQDGTRVFQQAGFEPQIAMQVNDIFTLLSMVSSGVGHALLPKRIEAVYENRVRLIPLQPRYRLQQHIGVVFLKAKERDPNLLALLAECRMYSLRLEQEAAG
MGSDKIHHHHHHMLISSRIVRSSLVNVPLRLSRCFTQAHRACKEEEVNSPLSSAAEQPEQKYTHFGSKTVLKSTKQKLVGDVFSSVANRYDLMNDVMSLGIHRLWKDHFINKLDAGKRPNSTTPLNFIDVAGGSGDIAFGLLDHAESKFGDTESTMDIVDINPDMLKEGEKRAMEQGKYFKDPRVRFLVSNGEKLEEIDSDSKDIYTVSFGIRNFTDIQKGLNTAYRVLKPGGIFYCLEFSKIENPLMDFAYQQWAKVLPVMGSMIANDYDSYQYLVESIERFPDQETFKSMIEKAGFKSAGYESLTFGICAIHWGIKV
MGSDKIHHHHHHMLITETFHDVQTSYGTTLRIYVYSPKIAGYPQAKFPGVILYSEIYQVTGPVRRFGQRIASEGYVVVAPAIYHNFMGPEALPYDVQGTDIGNEYKIKKPLESYDEDNKLCCDLLFQLPQFDGKRIGSTGMCLGGHLAFRALLDKRVTCATCFFPTDIHSRTLGLGQNDNSLERVSKELGNNQEMVLIFGTADTHVDPQGRDLIRKTLRDHGVKFTFLEILAAQHAFIRDEFSKGRFDSAITQSCLGFLFEQFNRKLRIDLGEFVDDNTPLEHVC
